Reference: patent US20260209386A1 (MYTHIC THERAPEUTICS, published 2026)
Numbering of substitutions follows the chain as printed. Read-outs that look alike come from different tables or passages of the source.

B1: MYT11161 (antibody, V domains shown)
VH: EVQLVESGGGLVQPGGSLRLSCTASGFSLSTYAMSWVRQAPGKGLEWVGMIYINDNTYYASWAKGRFTISRDTSKNTVYLQMNSLRAEDTAVYFCARDIGISYYIGVSLWGQGTLVTVSS
VL: EIVMTQSPSTLSASVGDRVIITCQASQSIGTRLSWYQQKPGKAPKLLIYGASKLHTGVPSRFSGSGSGAEFTLTISSLQPDDFATYYCLGEYSYTTTDGIAFGQGTKLTVL
notes: MYT9412 LC variant
B2: MYT11173 (antibody, V domains shown)
VH: B1 VH
VL: B1 VL with H55A, G99H
notes: MYT9412 LC variant
B3: MYT11167 (antibody, V domains shown)
VH: B1 VH
VL: B1 VL with H55A, S93H
notes: MYT9412 LC variant
B4: MYT11168 (antibody, V domains shown)
VH: B1 VH
VL: B1 VL with H55A, Y94H
notes: MYT9412 LC variant
B5: MYT11175 (antibody, V domains shown)
VH: B1 VH
VL: B1 VL with H55A, A101H
notes: MYT9412 LC variant
B6: MYT11169 (antibody, V domains shown)
VH: B1 VH
VL: B1 VL with H55A, T95H
notes: MYT9412 LC variant
B7: MYT11170 (antibody, V domains shown)
VH: B1 VH
VL: B1 VL with H55A, T96H
notes: MYT9412 LC variant
B8: MYT11164 (antibody, V domains shown)
VH: B1 VH
VL: B1 VL with H55A, G90H
notes: MYT9412 LC variant
B9: MYT11162 (antibody, V domains shown)
VH: B1 VH
VL: B1 VL with H55A, T56H
notes: MYT9412 LC variant
B10: MYT11171 (antibody, V domains shown)
VH: B1 VH
VL: B1 VL with H55A, T97H
notes: MYT9412 LC variant
B11: MYT11179 (antibody, V domains shown)
VH: B1 VH
VL: B1 VL with H55A, E91A
notes: MYT9412 LC alanine variant
B12: MYT11256 (antibody, V domains shown)
VH: EVQLVESGGGLVQPGGSLRLSCTASGIHLSRYSMGWVRQAPGKGLEWVGIISYGGSTYYASWAKGRFTISRDTSKNTVYLQMNSLRAEDTAVYFCARVGYPGYSGYGYAFDAFDPWGQGTLVTVSS
VL: EIVMTQSPSTLSASVGDRVIITCQSSKSVYNDNWLSWYQQKPGKAPKLLIYGASTLASGVPSRFSGSGSGAEFTLTISSLQPDDFATYYCAGGYSSSSDNGFGQGTKLTVL
notes: MYT9792 variant, His at VH 28 (H1 03)
B13: MYT11255 (antibody, V domains shown)
VH: B12 VH with I27H, H28D
VL: B12 VL
notes: MYT9792 variant, His at VH 27 (H1 02)
B14: MYT11262 (antibody, V domains shown)
VH: B12 VH with H28D, M34H
VL: B12 VL
notes: MYT9792 variant, His at VH 34 (H1 09)
B15: MYT11260 (antibody, V domains shown)
VH: B12 VH with H28D, Y32H
VL: B12 VL
notes: MYT9792 variant, His at VH 32 (H1 07)
B16: MYT11254 (antibody, V domains shown)
VH: B12 VH with G26H, H28D
VL: B12 VL
notes: MYT9792 variant, His at VH 26 (H1 01)

Columns and labels:
[1] = target: T1, Human PTK7 Protein, His Tag, Acro Biosystems (human, UniProt Q13308 31-704); assay: BLI, anti-human Fc capture, 50 nM PTK7; 2 = substantially similar binding relative to parent
T1 construct: Bought recombinant protein; also called CCK4; not shown: His tag
T1 sequence: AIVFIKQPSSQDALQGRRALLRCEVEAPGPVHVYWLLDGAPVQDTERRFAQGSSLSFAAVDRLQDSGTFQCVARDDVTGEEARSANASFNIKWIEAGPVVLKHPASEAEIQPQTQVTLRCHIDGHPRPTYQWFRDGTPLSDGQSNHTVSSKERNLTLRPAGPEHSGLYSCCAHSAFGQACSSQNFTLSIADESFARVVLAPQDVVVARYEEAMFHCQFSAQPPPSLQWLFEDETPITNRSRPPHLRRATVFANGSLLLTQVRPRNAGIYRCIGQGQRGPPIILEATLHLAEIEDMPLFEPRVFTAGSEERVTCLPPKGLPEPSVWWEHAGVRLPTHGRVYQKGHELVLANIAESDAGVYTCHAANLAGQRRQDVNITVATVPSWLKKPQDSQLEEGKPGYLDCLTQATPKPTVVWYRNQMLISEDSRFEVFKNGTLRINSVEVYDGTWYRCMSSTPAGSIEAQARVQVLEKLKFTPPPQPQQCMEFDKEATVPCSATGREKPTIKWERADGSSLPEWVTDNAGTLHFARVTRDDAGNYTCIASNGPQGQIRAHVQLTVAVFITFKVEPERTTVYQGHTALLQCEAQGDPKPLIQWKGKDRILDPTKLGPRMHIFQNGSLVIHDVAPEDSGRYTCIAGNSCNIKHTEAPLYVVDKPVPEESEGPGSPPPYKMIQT

[2] = target: T2, Human PTK7 Protein, His Tag, Acro Biosystems (human, UniProt Q13308 31-704); assay: as above; remark: listed apart in the source
T2 construct: Bought recombinant protein; also called CCK4; not shown: His tag
T2 sequence: T1 sequence

Binder	binding result [1]	binding result [2]
B1	binds	
B2	binds	
B3	binds	
B4	binds	
B5	binds	
B6	binds	
B7	binds	
B8	binds	
B9	binds	
B10	binds	
B11	binds	
B12		binds
B13		binds
B14		binds
B15		binds
B16		binds
